From PMC10039900, “Characterization of human oxidoreductases involved in aldehyde odorant metabolism” (Scientific Reports, 2023) come the findings set out here.

This series concerns the molecule itself. As to the kind of experiment: crystal structure; sitting drop vapor diffusion at 20 °C, ALDH3A1 2 mg/ml, 18% PEG 3350 in 0.1 M potassium acetate pH 7.5; crystals soaked in mother liquor plus 10 mM octanal; 1.80 Å.

B1: aldehyde dehydrogenase family 3 member A1 (ALDH3A1) (enzyme, human)
chain: SKISEAVKRARAAFSSGRTRPLQFRIQQLEALQRLIQEQEQELVGALAADLHKNEWNAYYEEVVYVLEEIEYMIQKLPEWAADEPVEKTPQTQQDELYIHSEPLGVVLVIGTWNYPFNLTIQPMVGAIAAGNSVVLKPSELSENMASLLATIIPQYLDKDLYPVINGGVPETTELLKERFDHILYTGSTGVGKIIMTAAAKHLTPVTLELGGKSPCYVDKNCDLDVACRRIAWGKFMNSGQTCVAPDYILCDPSIQNQIVEKLKKSLKEFYGEDAKKSRDYGRIISARHFQRVMGLIEGQKVAYGGTGDAATRYIAPTILTDVDPQSPVMQEEIFGPVLPIVCVRSLEEAIQFINQREKPLALYMFSSNDKVIKKMIAETSSGGVAANDVIVHITLHSLPFGGVGNSGMGSYHGKKSFETFSHRRSCLVRPLMNDEGLKVRYPPSPAKMTQH
notes: human ALDH3A1, UniProt P30838; Subcloned between NdeI and SacI; The crystal was soaked with 10 mM octanal (a small molecule, not a partner); also called aldehyde dehydrogenase 3A1; Aldehyde dehydrogenase, dimeric NADP-preferring; source: E. coli BL21(DE3), purified (two ammonium sulfate precipitations, two chromatography steps)
For the protein B1, the binding result is listed as “binds”.
